What was measured:
[1] = system: TbSTT3A; assay: Kinetic assay with ssOST enzyme: in vitro glycosylation of acceptor peptide, UPLC readout; type: biochemical, Trypanosoma brucei; settings: compared to Dol20-PP-GlcNAc2Man5 as donor; 50 nM TbSTT3A, 15 µM LLO, 20 µM 5CF-GSDANYTYTQ, 30°C; Figure 3A
Procedure: (§1) In vitro glycosylation reactions were performed by mixing 50 nM purified TbSTT3A or 100 nM TbSTT3B protein, 15µM Phy-LLO or Dol20-LLO, 10 mM MnCl2, 150 mM NaCl, 20 mM HEPES pH 7.5, 0.035% DDM, 0.007% CHS and 20 µM of the acceptor peptide (for STT3A: 5CF-GSDANYTYTQ (SEQ ID No 33), for STT3B: 5CF-GSLANYTK (SEQ ID No 34)), and incubating at 30°C. 1 µL samples were taken at different time points and diluted in 10% ACN, 10 mM phosphate buffer pH 7. Samples were analyzed by reverse-phase chromatography using a UPLC Dionex UltiMate 3000 with an Accucore 150-C18 100 × 2.1 mm 2.6 µm column (Thermo Fisher Scientific)40. Peaks for glycopeptide and peptide were integrated using the Software ChromeleonTM, and the amount of produced glycopeptide was determined for each data point. Turnover rate determination was performed by fitting of the data to linear regression using PRISM software.

[2] = system: TbSTT3B; assay: as above; type: biochemical, Trypanosoma brucei; settings: for completion of the glycosylation reaction: after an hour of incubation at room temperature, TbSTT3B
Procedure: as §1, with “and incubating at 30°C.” left out

| Substance | turnover rate of glycosylation [1] | completion of the glycosylation reaction [2] | turnover rate ([2]; compared to Dol20-PP-GlcNAc2Man9 as substrate, 100 nM TbSTT3B, 15 µM LLO, 20 µM 5CF-GSLANYTK, 30°C, Figure 3B) |
| --- | --- | --- | --- |
| phy-PP-GlcNAc2Man5 | almost identical | – | – |
| Dol20-PP-GlcNAc2Man9 [reference compound] | – | went to completion | – |
| phy-PP-GlcNAc2Man9 | – | went to completion | somewhat slower |
